Test results from patent US10100120B2, “Antibody which specifically binds to human CRTH2” (KYOWA HAKKO KIRIN CO., LTD, priority 2015, dated 2018).
Substitutions are numbered along the chain they refer to.

B1: LV0HV1: humanized Lym2 antibody, VL LV0 (SEQ ID NO: 33), VH HV1 (SEQ ID NO: 51) (antibody, V domains shown)
VH: EVQLVESGGGVVQPGRSLRLSCAASGFTFSNYYMAWVRQAPGKGLEWVATISYDGSSTYYRDSVKGRFTISRDNAKNSLYLQMNSLRAEDTATYYCARHRGYYYSGAGYFDYWGQGTMVTVSS
VL: DIVMTQTPLSLPVTPGESASISCRSSQSLEYSDGYTYLEWYLQKPGQSPQVLIYGVSNRFSGVPDRFSGSGSGTDFTLKISRVEAEDVGVYYCFQATHDPLTFGQGTKLEIK
B2: Lym2 antibody: rat anti-human CRTH2 monoclonal antibody from hybridoma Lym2, rat IgG2b; VH SEQ ID NO: 17, VL SEQ ID NO: 19 (antibody, listed as Rattus norvegicus, V domains shown)
VH: B1 VH with V11L, L18M, R19K, G42K, N77S, S78T, N84D, A88S, T117V
VL: DVVLTQTPVSLSVTLGDQASISCRSSQSLEYSDGYTYLEWYLQKPGQSPQVLIYGVSNRFSGVPDRFIGSGSGTDFTLKISRVEPEDLGVYYCFQATHDPLTFGSGTKLEIK

Columns and labels:
human eosinophils = assay: Agonist, antagonist and ligand-induced signal enhancing activity using shape change of human eosinophils (Example 21); type: cell-based; settings: antibody 10 μg/mL, FIG. 18
Description: Eosinophils were separated from human peripheral blood in the same manner as in Example 11. In this case, the step of adding the same amount of physiological saline for injection as the blood to the blood was omitted and the […] on Ficoll-Paque PREMIUM 1.084 (GE Healthcare). The isolated human eosinophils were suspended with D-PBS (−) (NACALAI TESQUE, Inc.) and a reaction was performed in a 5% CO2 incubator at 37° C. for 1 hour and 30 minutes.
Thereafter, the cells were seeded in a 96-well plate at 0.7×10^5 cells/well using 10% FBS-containing RPMI1640. Next, an isotype control antibody, the humanized Lym2 antibody LV0HV1, the anti-human CRTH2 antibody hu19A2 v52, ch8B1, ch3C12, or ch31A5 prepared in Example 9, or the commercially available anti-human CRTH2 antibody BM16 (Santa Cruz Biotechnology), or 301108 (R&D) was added thereto at a final concentration of 10 μg/mL to cause a reaction in a 5% CO2 incubator at 37° C. for 30 minutes. […]
Next, RPMI1640 containing either DKPGD2 (Cayman Chemical) or 10% FBS—was added thereto at a final concentration of 100 nM to cause a reaction in a 5% CO2 incubator at 37° C. for 60 minutes. […] The cells were washed twice with SM, and the shape change of eosinophils was analyzed in the same manner as in Example 19.

cynomolgus monkey CRTH2 = assay: Binding activity against Azami-Green fusion cynomolgus monkey CRTH2-expressing CHO/DG44 cells; settings: 2-30000 ng/mL, compared with human CRTH2; FIG. 21
Sequence of cynomolgus monkey CRTH2 (as listed by the source): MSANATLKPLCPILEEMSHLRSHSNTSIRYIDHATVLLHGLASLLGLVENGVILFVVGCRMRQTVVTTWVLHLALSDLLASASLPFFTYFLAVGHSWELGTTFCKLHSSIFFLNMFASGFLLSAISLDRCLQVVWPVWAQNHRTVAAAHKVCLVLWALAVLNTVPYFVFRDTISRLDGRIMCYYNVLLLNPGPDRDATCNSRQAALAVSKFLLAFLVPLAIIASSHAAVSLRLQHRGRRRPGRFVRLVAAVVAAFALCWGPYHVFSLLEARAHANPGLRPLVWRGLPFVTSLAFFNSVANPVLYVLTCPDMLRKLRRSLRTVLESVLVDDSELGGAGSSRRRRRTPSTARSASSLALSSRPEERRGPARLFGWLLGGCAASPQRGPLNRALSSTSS
Description: The Azami-Green fusion human CRTH2-expressing CHO/DG44 cells and the cynomolgus monkey CRTH2-expressing CHO/DG44 cells established in Example 24 were peeled using 0.02% EDTA solution (NACALAI TESQUE, Inc.), washed with PBS, and suspended with SM. Next, the cells were seeded in a 96-well plate such that each well had 2×10^5 cells, and humanized Lym2 antibody LV0HV1 or the anti-DNP IgG1 antibody at each of final concentrations 30000, 7500, 1875, 469, 117, 29, 7, and 2 ng/mL were added thereto to cause a reaction at 4° C. for 40 minutes.
After the cells were washed three times with SM, goat anti-Human IgG alexa 647 (Molecular Probes) diluted to a concentration of 10 μg/mL with SM was added thereto at 100 μL/well to perform a reaction at 4° C. for 40 minutes. The cells were washed with SM and resuspended with 100 μL of SM, and the fluorescent intensity was measured by flow cytometry (BD Biosciences, FACS CantoII).
The data was analyzed by FLowJo 7.65 (Tomy Digital Biology Co., Ltd.).

[1] = system: differentiation-induced Th1 cells; assay: Reactivity against differentiation-induced Th1 cells; type: binding, human; settings: antibody 10 μg/mL, 4° C., 1 hour; FIG. 15
Description: Healthy person-derived frozen PBMC (Allcells, LLC.) was washed once with 20 mL of PBMC culture medium containing 50 μL of DNase I recombinant, RNase-free (Roche Diagnostics K.K.), suspended with 20 mL of PBMC culture medium containing 50 μL of DNase I recombinant, RNase-free, and allowed to stand in a 5% CO2 incubator at 37° C. for 2 hours.
Thereafter, the cells were washed twice with the MACS buffer described in Example 11 and naive CD4-positive T-cells were isolated by a negative selection method using Naive CD4^+ T Cell Isolation Kit II human (Miltenyi Biotec) according to the attached instructions. The negative selection was performed twice in order to improve purity of the naive CD4-positive T-cells.
According to the method described in J Immunol, 2002. 169(5): p. […]
After the cells were washed, 10 μg/mL of CELL LAB Mouse Anti-Rat Kappa (kappa light chain specific) FITC (Beckman Coulter Inc.) diluted with SM was added to wells to which Lym2 antibody or BM16 was added, 10 μg/mL of CELL LAB Goat Anti-Mouse IgG (γ chain specific) Fluorescein (FITC) Conjugate (Beckman Coulter Inc.) diluted with SM was added to wells to which 301108 was added at a final concentration of 10 μg/mL to cause a reaction at 4° C. for 1 hour. After the cells were washed again, the cells were suspended with SM, and the fluorescent intensity was analyzed by flow cytometry (BD Biosciences, FACS CantoII).

| Molecule | effect on shape change of eosinophils induced by DKPGD2 (human eosinophils; DKPGD2 100 nM) | shape change of eosinophils in the absence of a ligand (agonist activity) (human eosinophils; no DKPGD2) | binding activity against monkey CRTH2 (cynomolgus monkey CRTH2) | reactivity against the differentiation-induced Th1 [1] |
| --- | --- | --- | --- | --- |
| B1 | do not affect shape change | do not affect shape change | substantially the same as each other | – |
| B2 | – | – | – | did not exhibit reactivity |
